T1: Ala mutant SEQ ID NO: 27 (human)
T1 sequence (peptide): AENMDDQWMQDEMEIGY

T2: Ala mutant SEQ ID NO: 28 (human)
T2 sequence (peptide): EANMDDQWMQDEMEIGY

T3: Ala mutant SEQ ID NO: 29 (human)
T3 sequence (peptide): EEAMDDQWMQDEMEIGY

T4: Ala mutant SEQ ID NO: 30 (human)
T4 sequence (peptide): EENADDQWMQDEMEIGY

T5: Ala mutant SEQ ID NO: 31 (human)
T5 sequence (peptide): EENMADQWMQDEMEIGY

T6: Ala mutant SEQ ID NO: 33 (human)
T6 sequence (peptide): EENMDDAWMQDEMEIGY

T7: Ala mutant SEQ ID NO: 36 (human)
T7 sequence (peptide): EENMDDQWMADEMEIGY

T8: Ala mutant SEQ ID NO: 37 (human)
T8 sequence (peptide): EENMDDQWMQAEMEIGY

T9: Ala mutant SEQ ID NO: 38 (human)
T9 sequence (peptide): EENMDDQWMQDAMEIGY

T10: Ala mutant SEQ ID NO: 39 (human)
T10 sequence (peptide): EENMDDQWMQDEAEIGY

T11: Ala mutant SEQ ID NO: 40 (human)
T11 sequence (peptide): EENMDDQWMQDEMAIGY

T12: Ala mutant SEQ ID NO: 41 (human)
T12 sequence (peptide): EENMDDQWMQDEMEAGY

T13: Ala mutant SEQ ID NO: 42 (human)
T13 sequence (peptide): EENMDDQWMQDEMEIAY

T14: Ala mutant SEQ ID NO: 43 (human)
T14 sequence (peptide): EENMDDQWMQDEMEIGA

T15: Ala mutant having 3-amino acid substitution, SEQ ID NO: 44 (human)
T15 sequence (peptide): AAAMDDQWMQDEMEIGY

T16: Ala mutant having 3-amino acid substitution, SEQ ID NO: 46 (human)
T16 sequence (peptide): EENMDDAAAQDEMEIGY

T17: Ala mutant having 3-amino acid substitution, SEQ ID NO: 47 (human)
T17 sequence (peptide): EENMDDQWMAAAMEIGY

T18: Ala mutant having 3-amino acid substitution, SEQ ID NO: 48 (human)
T18 sequence (peptide): EENMDDQWMQDEAAAGY

T19: Ala mutant having 3-amino acid substitution, SEQ ID NO: 49 (human)
T19 sequence (peptide): EENMDDQWMQDEMEIAA

T20: TA0096 (peptide antigen corresponding to positions 340 to 356 of PAD4) (human)
T20 sequence (peptide): EENMDDQWMQDEMEIGY


Experiments:
[1] = target: T1, Ala mutant SEQ ID NO: 27 (human); assay: ELISA, peptide on plate (10 ug/mL)
[2] = target: T2, Ala mutant SEQ ID NO: 28 (human); assay: ELISA, peptide on plate (10 ug/mL)
[3] = target: T3, Ala mutant SEQ ID NO: 29 (human); assay: ELISA, peptide on plate (10 ug/mL)
[4] = target: T4, Ala mutant SEQ ID NO: 30 (human); assay: ELISA, peptide on plate (10 ug/mL)
[5] = target: T5, Ala mutant SEQ ID NO: 31 (human); assay: ELISA, peptide on plate (10 ug/mL)
[6] = target: T6, Ala mutant SEQ ID NO: 33 (human); assay: ELISA, peptide on plate (10 ug/mL)
[7] = target: T7, Ala mutant SEQ ID NO: 36 (human); assay: ELISA, peptide on plate (10 ug/mL)
[8] = target: T8, Ala mutant SEQ ID NO: 37 (human); assay: ELISA, peptide on plate (10 ug/mL)
[9] = target: T9, Ala mutant SEQ ID NO: 38 (human); assay: ELISA, peptide on plate (10 ug/mL)
[10] = target: T10, Ala mutant SEQ ID NO: 39 (human); assay: ELISA, peptide on plate (10 ug/mL)
[11] = target: T11, Ala mutant SEQ ID NO: 40 (human); assay: ELISA, peptide on plate (10 ug/mL)
[12] = target: T12, Ala mutant SEQ ID NO: 41 (human); assay: ELISA, peptide on plate (10 ug/mL)
[13] = target: T13, Ala mutant SEQ ID NO: 42 (human); assay: ELISA, peptide on plate (10 ug/mL)
[14] = target: T14, Ala mutant SEQ ID NO: 43 (human); assay: ELISA, peptide on plate (10 ug/mL)
[15] = target: T15, Ala mutant having 3-amino acid substitution, SEQ ID NO: 44 (human); assay: ELISA, peptide on plate (10 ug/mL)
[16] = target: T16, Ala mutant having 3-amino acid substitution, SEQ ID NO: 46 (human); assay: ELISA, peptide on plate (10 ug/mL)
[17] = target: T17, Ala mutant having 3-amino acid substitution, SEQ ID NO: 47 (human); assay: ELISA, peptide on plate (10 ug/mL)
[18] = target: T18, Ala mutant having 3-amino acid substitution, SEQ ID NO: 48 (human); assay: ELISA, peptide on plate (10 ug/mL)
[19] = target: T19, Ala mutant having 3-amino acid substitution, SEQ ID NO: 49 (human); assay: ELISA, peptide on plate (10 ug/mL)
[20] = target: T20, TA0096 (peptide antigen corresponding to positions 340 to 356 of PAD4) (human); assay: ELISA, peptide on plate (10 ug/mL)
[21] = target: full-length recombinant mouse PAD4 (mouse) (UniProt Q9Z183); assay: ELISA, mouse PAD4 on plate, antibody 1 ug/mL
Sequence of full-length recombinant mouse PAD4 (mouse) (Q9Z183 whole entry): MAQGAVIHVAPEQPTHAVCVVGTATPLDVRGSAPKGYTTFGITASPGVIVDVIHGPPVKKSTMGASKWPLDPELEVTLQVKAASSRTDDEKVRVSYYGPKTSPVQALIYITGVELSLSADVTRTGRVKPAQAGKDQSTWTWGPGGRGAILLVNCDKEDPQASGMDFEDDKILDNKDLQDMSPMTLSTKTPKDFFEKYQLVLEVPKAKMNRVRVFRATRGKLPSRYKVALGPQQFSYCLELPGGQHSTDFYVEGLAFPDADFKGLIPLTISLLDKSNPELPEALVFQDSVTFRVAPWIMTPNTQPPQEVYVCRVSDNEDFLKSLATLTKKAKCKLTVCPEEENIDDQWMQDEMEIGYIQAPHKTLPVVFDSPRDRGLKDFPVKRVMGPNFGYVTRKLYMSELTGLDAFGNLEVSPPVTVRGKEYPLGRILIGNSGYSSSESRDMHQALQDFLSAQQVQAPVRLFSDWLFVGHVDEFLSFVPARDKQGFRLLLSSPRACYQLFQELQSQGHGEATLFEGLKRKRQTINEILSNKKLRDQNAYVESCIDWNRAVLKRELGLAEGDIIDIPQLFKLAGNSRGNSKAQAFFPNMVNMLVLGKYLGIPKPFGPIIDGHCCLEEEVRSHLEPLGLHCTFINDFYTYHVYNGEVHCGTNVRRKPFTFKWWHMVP

[22] = target: full-length recombinant mouse PAD4 (mouse) (UniProt Q9Z183); assay: ELISA, mouse PAD4 on plate, antibody 0.25 ug/mL
[23] = target: full-length recombinant mouse PAD4 (mouse) (UniProt Q9Z183); assay: ELISA, mouse PAD4 on plate, antibody 0.0625 ug/mL
[24] = target: full-length recombinant mouse PAD4 (mouse) (UniProt Q9Z183); assay: ELISA, mouse PAD4 on plate, antibody 0.015625 ug/mL
[25] = target: full-length recombinant mouse PAD4 (mouse) (UniProt Q9Z183); assay: ELISA, mouse PAD4 on plate, antibody 0.0002441 ug/mL
[26] = target: full-length recombinant mouse PAD4 (mouse) (UniProt Q9Z183); assay: ELISA, mouse PAD4 on plate, antibody 0.0009766 ug/mL
[27] = target: full-length recombinant mouse PAD4 (mouse) (UniProt Q9Z183); assay: ELISA, mouse PAD4 on plate, antibody 0.0039063 ug/mL
[28] = target: full-length recombinant mouse PAD4 (mouse) (UniProt Q9Z183); assay: ELISA, mouse PAD4 on plate, antibody 6.104E-05 ug/mL

| Binder | absorbance 490 nm/630 nm [1] [OD] | absorbance 490 nm/630 nm [2] [OD] | absorbance 490 nm/630 nm [3] [OD] | absorbance 490 nm/630 nm [4] [OD] | absorbance 490 nm/630 nm [5] [OD] | absorbance 490 nm/630 nm [6] [OD] | absorbance 490 nm/630 nm [7] [OD] | absorbance 490 nm/630 nm [8] [OD] | absorbance 490 nm/630 nm [9] [OD] | absorbance 490 nm/630 nm [10] [OD] | absorbance 490 nm/630 nm [11] [OD] | absorbance 490 nm/630 nm [12] [OD] | absorbance 490 nm/630 nm [13] [OD] | absorbance 490 nm/630 nm [14] [OD] | absorbance 490 nm/630 nm [15] [OD] | absorbance 490 nm/630 nm [17] [OD] | absorbance 490 nm/630 nm [18] [OD] | absorbance 490 nm/630 nm [19] [OD] | absorbance 490 nm/630 nm [20] [OD] | absorbance 490 nm/630 nm [21] [OD] | further results |
| --- | --- | --- | --- | --- | --- | --- | --- | --- | --- | --- | --- | --- | --- | --- | --- | --- | --- | --- | --- | --- | --- |
| G8 (antibody, IgG1, V domains shown) VH: AVTLDESGGGLQTPGGALSLVCKASGFTFSTYAMGWMRQAPGKGLEYVAAIRNDGSWTGYGAAVKGRATILRDNGQSTVRLQLSNLRAEDTGTYYCAKYTGSSGGSIGAWGHGTEVIVS VL: ASTQPSSVSANLGGTVEITCSGGNRNYYYGWYQQKSPGSAPVTLIYANDKRPSNIPSRFSGSKSGSTGTLTITGVQAEDEAVYFCGTADTGKYVFGAGTTLTVL | 1.96 | 1.94 | 1.91 | 1.93 | 1.85 | 1.98 | 1.92 | 1.88 | 1.91 | 1.88 | 1.89 | 1.85 | 1.86 | 1.92 | 1.9 | 1.86 | 1.88 | 1.86 | 1.88 | 2.26 | absorbance 490 nm/630 nm [16]: 0.178 OD; absorbance 490 nm/630 nm [22]: 2.25 OD; absorbance 490 nm/630 nm [23]: 2.22 OD; absorbance 490 nm/630 nm [24]: 2.25 OD; absorbance 490 nm/630 nm [25]: 0.205 OD; absorbance 490 nm/630 nm [26]: 0.555 OD; absorbance 490 nm/630 nm [27]: 1.42 OD; absorbance 490 nm/630 nm [28]: 0.122 OD |
| H7 (antibody, IgG1, V domains shown) VH: AVTLDESGGGLQTPGGALSLVCKASGFTFSTYAMGWMRQAPGKGLEYVAAIRNDGSWTGYGAAVKGRATILRDNGQSTVRLQLSNLRAEDTGTYYCAKYTGSSGGSIGAWGHGTEVIVS VL: ASTQPSSVSANPGGTVEITCSGGSGRYYYGWYQQKSPGSAPVTVIYSSTHRPSNIPSRFSGSKSGSTATLTITGVQAEDEAVYFCGTADSSSYVFGAGTTLTVL | 1.9 | 1.95 | 1.9 | 1.95 | 0.462 | 1.87 | 1.87 | 1.86 | 1.99 | 1.81 | 1.86 | 1.83 | 1.85 | 1.87 | 1.9 | 1.67 | 1.87 | 1.86 | 1.82 | 2.3 | absorbance 490 nm/630 nm [22]: 2.31 OD; absorbance 490 nm/630 nm [23]: 2.29 OD; absorbance 490 nm/630 nm [24]: 2.26 OD; absorbance 490 nm/630 nm [25]: 0.224 OD; absorbance 490 nm/630 nm [26]: 0.55 OD; absorbance 490 nm/630 nm [27]: 1.41 OD; absorbance 490 nm/630 nm [28]: 0.103 OD |
